Molecular target: PD1-Z CLEAR
Assay: flow cytometry, T cells 18 h after co-electroporation of PD1-Z RNA and bi-specific antibody RNA, stained with anti-mouse IgG Fab PE and anti-PD1 APC; same quadrant in the controls: EP16 PD1-Z alone 2.42, EP20 No RNA 0.086

Sequence of PD1-Z CLEAR (chain, as listed by the source limits assumed): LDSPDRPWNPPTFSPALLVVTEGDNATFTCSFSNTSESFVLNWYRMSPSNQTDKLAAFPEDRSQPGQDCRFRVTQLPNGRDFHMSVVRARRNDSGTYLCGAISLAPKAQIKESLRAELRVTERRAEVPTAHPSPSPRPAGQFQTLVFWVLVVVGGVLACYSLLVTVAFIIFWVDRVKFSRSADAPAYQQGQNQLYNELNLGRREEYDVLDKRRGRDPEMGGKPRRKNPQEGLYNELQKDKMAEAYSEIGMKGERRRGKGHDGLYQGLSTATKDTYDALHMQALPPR

Binder | percent of cells PD1+ mIgG Fab+ (upper right quadrant)
4A11-4D5-4 (bispecific antibody, part only; not given: anti-ErbB2 scFv 4D5-4 and linker, not shown: another chain or arm of the molecule; small tags and cut ends) scFv: DIQMTQSPSSLSASVGDRVSITCRASQGISSWLAWYQQKPEKAPKSLIYAASNLRSGVPSRFSGSGSGTDFTLTISSLQPEDFATYYCQQYYSYPRTFGQGTKVEIKGGGGSGGGGSGGGGSQLQLQESGPGLVKPSETLSLTCTVSGGSLSRSSFFWGWIRQPPGKGLEWIGSIYYSGSTYYNPSLKSRVTISVDTSKNQFSLKLSSVTAADTAVYYCVRDYDILTGDEDYWGQGTLVTVSS | 57.1
4A11-4D5-3 (bispecific antibody, part only; not given: anti-ErbB2 scFv 4D5-3 and linker, not shown: another chain or arm of the molecule; small tags and cut ends) scFv: DIQMTQSPSSLSASVGDRVSITCRASQGISSWLAWYQQKPEKAPKSLIYAASNLRSGVPSRFSGSGSGTDFTLTISSLQPEDFATYYCQQYYSYPRTFGQGTKVEIKGGGGSGGGGSGGGGSQLQLQESGPGLVKPSETLSLTCTVSGGSLSRSSFFWGWIRQPPGKGLEWIGSIYYSGSTYYNPSLKSRVTISVDTSKNQFSLKLSSVTAADTAVYYCVRDYDILTGDEDYWGQGTLVTVSS | 35.6

— patent publication US20170258835A1
